Structures can show the parent of a compound that is named as a salt.
What was measured:
TCPTP [1] = molecular target: T1, TCPTP (Homo sapiens, UniProt P17706); experiment: Phosphatase assay with recombinant, purified TCPTP (diFMUP substrate); type: biochemical; set-up: For phosphatase assays with purified protein, full length TCPTP was incubated in phosphatase reaction buffer; GST (N); made in house; host or cells: E. coli BL21 pLysS; conditions: FIG. 2B; for activation of TCPTP by small molecule compounds: preincubated with 0.2 μg/ml TCPTP 10 minutes RT, different concentrations
T1 sequence (P17706 1-387 isoform P17706-2): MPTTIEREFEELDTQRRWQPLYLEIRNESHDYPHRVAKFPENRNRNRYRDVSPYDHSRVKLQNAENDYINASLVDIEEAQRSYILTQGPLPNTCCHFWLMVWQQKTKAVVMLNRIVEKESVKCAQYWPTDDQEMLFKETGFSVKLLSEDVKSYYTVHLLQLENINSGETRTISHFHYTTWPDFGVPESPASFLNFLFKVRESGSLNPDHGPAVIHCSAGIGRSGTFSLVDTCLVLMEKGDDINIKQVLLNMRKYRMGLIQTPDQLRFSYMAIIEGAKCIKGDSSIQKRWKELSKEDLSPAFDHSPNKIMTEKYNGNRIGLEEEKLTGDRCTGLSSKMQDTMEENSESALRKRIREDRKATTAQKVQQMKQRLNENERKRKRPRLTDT
Protocol: Serum starved Hela cells were either left untreated on plastic, stimulated with 10% FBS for 30 min or detached and replated on collagen type I or poly-L-lysine (10 μg/ml, Sigma) coated tissue-culture plates for 1 h. When indicated cells were surface biotinylated as described^12. Cells were either lysed in Laemmli sample buffer and fractionated on SDS-PAGE for western blotting or lysed in lysis buffer and equal amounts of protein from each sample were precleared with protein G-Sepharose and subjected to immunoprecipitation. Antibodies (anti-TCPTP, Oncogene; anti-a1, anti-a5, anti-a6, all from Chemicon; anti-SHP-2, Santa Cruz) were incubated with protein G-Sepharose and immunoprecipitation was performed at 4° C. for 2 h. The immunoprecipitates were washed three times with cell lysis buffer. For co-precipitation assays, proteins were resolved on SDS-PAGE followed with western blotting or detection of biotin with Vectastain reagent (Vector). For phosphatase assays, immunoprecipitates were resuspended in phosphatase reaction buffer (25 mM Hepes pH 7.4, 50 mM NaCl, 1 mM DTT) and ⅓ of the reaction was subjected to western blotting and the remaining beads were assayed for phosphatase activity in triplicate using diFMUP (Molecular Probes) as a substrate and in the presence of serine/threonine phosphatase inhibitor cocktail (Sigma) according to manufacturers instructions. When indicate synthetic peptides were preincubated with the immunoprecipitates for 15 min prior to phosphatase assay reaction (α2 peptide […] (SEQ ID NO:6), a kind gift from Dr Heino). For phosphatase assays with purified protein, full length TCPTP was incubated in phosphatase reaction buffer in the presence or absence of TCPTP deletion mutant proteins and synthetic integrin cytoplasmic tail peptides as indicated. […] The phosphatase reaction was allowed to proceed for 10 minutes in RT and stopped with urea followed with measurement of umbelliferone fluorescence according to manufacturers instructions (Molecular Probes). Western blotting was performed with commercial antibodies raised against EGFR, EGFR(PY)845, 992 or 1068 (Cell Signalling Technologies), TCPTP (Oncogene) or tubulin (Santa Cruz Biotechnology). Specific binding of antibodies was detected with peroxidase-conjugated secondary antibodies and visualized by enhanced chemiluminescence detection.

TCPTP [2] = molecular target: T2, TCPTP (Homo sapiens, UniProt P17706); experiment: Phosphatase assay of immunoprecipitated TCPTP from HeLa lysates (diFMUP substrate); type: biochemical; conditions: peptide preincubated with immunoprecipitate 15 min; FIG. 2A
T2 construct: endogenous in cells; host or cells: HeLa
T2 sequence (P17706 1-415): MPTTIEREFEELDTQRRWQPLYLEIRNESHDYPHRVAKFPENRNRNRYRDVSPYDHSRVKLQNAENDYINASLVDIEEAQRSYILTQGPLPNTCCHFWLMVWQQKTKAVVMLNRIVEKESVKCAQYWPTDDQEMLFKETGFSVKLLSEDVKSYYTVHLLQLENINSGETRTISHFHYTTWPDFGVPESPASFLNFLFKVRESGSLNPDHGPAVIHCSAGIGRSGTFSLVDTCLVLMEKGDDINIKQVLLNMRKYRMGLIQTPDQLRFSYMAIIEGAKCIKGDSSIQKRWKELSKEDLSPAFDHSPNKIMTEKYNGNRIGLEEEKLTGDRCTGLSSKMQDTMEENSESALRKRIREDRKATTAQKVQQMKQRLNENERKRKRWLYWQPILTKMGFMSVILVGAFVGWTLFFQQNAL
Protocol: (§1) Serum starved Hela cells were either left untreated on plastic, stimulated with 10% FBS for 30 min or detached and replated on collagen type I or poly-L-lysine (10 μg/ml, Sigma) coated tissue-culture plates for 1 h. When indicated cells were surface biotinylated as described^12. Cells were either lysed in Laemmli sample buffer and fractionated on SDS-PAGE for western blotting or lysed in lysis buffer and equal amounts of protein from each sample were precleared with protein G-Sepharose and subjected to immunoprecipitation. Antibodies (anti-TCPTP, Oncogene; anti-a1, anti-a5, anti-a6, all from Chemicon; anti-SHP-2, Santa Cruz) were incubated with protein G-Sepharose and immunoprecipitation was performed at 4° C. for 2 h. The immunoprecipitates were washed three times with cell lysis buffer. For co-precipitation assays, proteins were resolved on SDS-PAGE followed with western blotting or detection of biotin with Vectastain reagent (Vector). […] The phosphatase reaction was allowed to proceed for 10 minutes in RT and stopped with urea followed with measurement of umbelliferone fluorescence according to manufacturers instructions (Molecular Probes). […] Specific binding of antibodies was detected with peroxidase-conjugated secondary antibodies and visualized by enhanced chemiluminescence detection.

HeLa cells = experiment: Microinjection of fluorescein diphosphate (FDP) and peptide into live HeLa cells, phosphatase activity; type: cell-based, human; conditions: 1 mg/ml peptide co-injected with 1 mM FDP, 30 min; compared with α2 or PBS; FIG. 4A
Protocol: Cells were plated on acid-washed glass coverslips coated with collagen type I, fibronectin or poly-L-lysine (10 μg/ml) and allowed to adhere for 1 h. Cells were washed in PBS and fixed with 4% paraformaldehyde for 10 min. For antibody staining, cells were permeabilized in PBS/0.1% Triton X-100 and washed with PBS/1% (w/v) BSA for blocking. Cells were stained with antibodies as indicated for 1 h at room temperature. Cells were then washed three times with PBS before detection with Alexa-488 or Alexa-555-conjugated anti-rabbit or anti-mouse antibodies (Molecular Probes). After washing in PBS and water, cells were mounted in Mowiol (100 mM Tris-HCl at pH 8.5, 10% (w/v) Mowiol (Calbiochem, San Diego, Calif.) and 25% (v/v) glycerol containing antifade (2.5% (w/v) 1,4-diazadicyclo-2.2.2-octane (Sigma)). Slides were examined using Zeiss inverted fluorescence microscope or a confocal laser scanning microscope (Axioplan 2 with LSM 510; Carl Zeiss Inc., Jena, Germany) equipped with 63×/1.4 Plan-Apochromat oil immersion objectives. Confocal images represent a single z-section of approximately 1.0 μm. Cytosolic microinjections with 1 mM FDP (Molecular probes) and 1 mg/ml of peptide in PBS were performed on Hela cells cultured on glass-bottom 3 cm plates. Fluorescence images from live cells were taken with identical settings and intensities were quantified using Zeiss Axioplan4 software.

SHP-2 = molecular target: T3, SHP-2 (Homo sapiens, UniProt Q06124); experiment: Phosphatase assay of immunoprecipitated SHP-2 from HeLa lysates (diFMUP substrate); type: biochemical; conditions: FIG. 2A
T3 construct: endogenous in cells; host or cells: HeLa
T3 sequence (Q06124 1-593): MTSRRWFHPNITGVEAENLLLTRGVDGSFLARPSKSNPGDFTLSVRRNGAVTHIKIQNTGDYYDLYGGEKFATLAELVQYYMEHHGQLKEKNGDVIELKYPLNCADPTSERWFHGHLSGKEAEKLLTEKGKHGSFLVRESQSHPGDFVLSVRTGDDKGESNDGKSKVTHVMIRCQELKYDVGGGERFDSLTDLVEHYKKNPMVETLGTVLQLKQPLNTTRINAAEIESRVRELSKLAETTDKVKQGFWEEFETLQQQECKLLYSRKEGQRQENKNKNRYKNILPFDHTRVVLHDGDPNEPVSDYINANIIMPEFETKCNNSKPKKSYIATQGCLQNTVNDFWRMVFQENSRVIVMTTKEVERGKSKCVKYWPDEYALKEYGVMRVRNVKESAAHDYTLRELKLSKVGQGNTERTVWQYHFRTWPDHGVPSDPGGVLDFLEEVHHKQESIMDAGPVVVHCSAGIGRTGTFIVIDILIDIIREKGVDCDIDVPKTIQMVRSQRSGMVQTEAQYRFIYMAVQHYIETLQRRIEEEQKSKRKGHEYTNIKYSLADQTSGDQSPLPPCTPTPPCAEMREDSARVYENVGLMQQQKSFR
Protocol: as §1

TCPTP [3] = molecular target: T1, TCPTP; experiment: Pull-down competition: purified TCPTP with GST-α1cyt fusion protein; type: binding; set-up: purified full-length TCPTP was incubated in the lysis buffer with GST-fusion proteins; GST (N); made in house; host or cells: E. coli BL21 pLysS; conditions: peptide 1 μg/ml, TCPTP 1 μg; FIG. 1F
Protocol: α1cyt and a2cyt were subcloned into pGEX4T1 (Amersham Biosciences). Full length TCPTP (45 kD) and its deletion mutants were PCR-amplified from pCG-TC45 plasmid^11 and cloned into pGEX-6P-1. GST-fusion proteins were expressed in E. coli (BL21 pLysS) and purified using manufacturer's instructions (Amersham Biosciences). Fusion proteins were either used immobilized to Glutathione-sepharose, eluted with 25 mM glutathione or GST was cleaved using precision protease according to manufacturers instructions (Amersham Biosciences). For pull-down assays, Hela cells were lysed to lysis buffer (1% octylglycoside, 50 mM Tris-HCl pH 7.5, 150 mM NaCl, 1 mM MgCl2, complete protease inhibitor (Roche)), clarified with centrifugation 10 min 13000 rpm+4 C, precleared with glutathione-sepharose and incubated with immobilized GST-fusion proteins and washed 3 times with 1 ml on the same buffer. Bound proteins were resolved on SDS-PAGE and detected with western blot. Alternatively, purified full-length TCPTP was incubated in the lysis buffer with GST-fusion proteins as indicated in the presence or absence of synthetic integrin α1 cytoplasmic tail peptide (RPLKKKMEKRPLKKKMEK, (SEQ ID NO:5) Genemed Synthesis).

activation of TCPTP by small molecule compounds (TCPTP [1]) | increase of catalytic activity of immunoprecipitated TCPTP (TCPTP [2]) | activation of SHP-2 phosphatase (SHP-2) | Molecule | further results
able to activate TCPTP | – | – | NCCC1CCCC(CCN)N1 (centres unmarked) [MDL-26,630 trihydrochloride] | –
– | 2.95±0.48 fold | not activated | synthetic α1 tail peptide: synthetic integrin α1 cytoplasmic tail peptide RPLKKKMEKRPLKKKMEK (SEQ ID NO:5), Genemed Synthesis (fusion protein) | activation of recombinant, purified TCPTP by peptide (TCPTP [1]; TCPTP 0.15 μg/ml, different peptide concentrations): highly activated; phosphatase activity in live HeLa cells (FDP fluorescence) (HeLa cells): induced phosphatase activity; competition with α1cyt for the association with TCPTP (TCPTP [3]): able to compete
able to activate TCPTP | – | – | NCCCCNCCCN [Spermidine] | –
– | no effect | not activated | α2 tail peptide: synthetic α2 integrin cytoplasmic tail peptide KLGFFKRKYEKMTKNPDEIDETTELSS (SEQ ID NO:6) (fusion protein) | –
able to activate TCPTP | – | – | N.N.N.N.N.N.N.N.N.N.N.N.N.N.[Cl-].[Cl-].[Cl-].[Cl-].[Cl-].[Cl-].[O-2].[O-2].[Ru+3].[Ru+3].[Ru+4] [Ruthenium Red] | –

Molecule | activation of TCPTP by small molecule compounds (TCPTP [1]) | increase of catalytic activity of immunoprecipitated TCPTP (TCPTP [2]) | activation of SHP-2 phosphatase (SHP-2) | further results
O=C1c2c(O)ccc(O)c2C(=O)c2c(NCCNCCO)ccc(NCCNCCO)c21 [Mitoxantrone] | able to activate TCPTP | – | – | –
